Data as given in PMC9132681 (Biochimie, 2022).

B1: cytosolic fragment of human TOM70 (residues 111-608), His-tagged (domain or fragment)
chain: LDRAQAAKNKGNKYFKAGKYEQAIQCYTEAISLCPTEKNVDLSTFYQNRAAAFEQLQKWKEVAQDCTKAVELNPKYVKALFRRAKAHEKLDNKKECLEDVTAVCILEGFQNQQSMLLADKVLKLLGKEKAKEKYKNREPLMPSPQFIKSYFSSFTDDIISQPMLKGEKSDEDKDKEGEALEVKENSGYLKAKQYMEEENYDKIISECSKEIDAEGKYMAEALLLRATFYLLIGNANAAKPDLDKVISLKEANVKLRANALIKRGSMYMQQQQPLLSTQDFNMAADIDPQNADVYHHRGQLKILLDQVEEAVADFDECIRLRPESALAQAQKCFALYRQAYTGNNSSQIQAAMKGFEEVIKKFPRCAEGYALYAQALTDQQQFGKADEMYDKCIDLEPDNATTYVHKGLLQLQWKQDLDRGLELISKAIEIDNKCDFAYETMGTIEVQRGNMEKAIDMFNKAINLAKSEMEMAHLYSLCDAAHAQTEVAKKYGLKPPTL

Experiments:
full-length human Hsp90 = full-length human Hsp90 (human, UniProt P07900 1-732); experiment: pull-down
[1] = biological target: B1; experiment: SEC-MALS

Q: Does B1 bind (full-length human Hsp90)?
A: Result: binds

B2: C-terminal domain of human Hsp90 (residues 566-732) (domain or fragment)
chain: not shown
Q: B2 was tested. Which “stoichiometry N” value [1] did it give?
A: The value was 2 C-Hsp90 per TOM70.
